± gives the standard deviation.
Assay: protein stability index of a GFP-peptide fusion (GPS, HEK-293T) (PSI 1-6); higher = more stable
[1] = treatment: DMSO, c terminus: a fixed tail appended
[2] = treatment: MLN4924 1 uM, 8 h, c terminus: a fixed tail appended
[3] = treatment: DMSO, c terminus: native
[4] = treatment: MLN4924 1 uM, 8 h, c terminus: native
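Also: 24-mer peptide tiles fused after GFP, lentivirally expressed, FACS-sorted into six equal bins by GFP/DsRed ratio, decoded by Illumina sequencing, PSI is the read-weighted mean bin number.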

Sequence	protein stability index [1]	protein stability index [2]	protein stability index [3]	protein stability index [4]
EFYHDEFKRWIYLNDQNLCIPASS [GAN]	2.75 ± 0.28	2.74 ± 0.13		
KKHGTQNKRAALQALKRKKRFEKQ [CHMP4C]	4.52 ± 0.3	4.52 ± 0.19		
ILREIRHPNIITLHDIFENKTDVV [DAPK3]	2.47 ± 0.21	2.54 ± 0.2		
LSATIGSILRELDTSMDGTEPPQN [SERTAD3]	4.1 ± 0.15	4.26 ± 0.33		
TRGWVQTLARMSRRTRGPVERAAA [C6orf223]	3.23 ± 0.22	3.57 ± 0.098		
APATGSGTPGPFTKEGGMLAYYEV [CHIT1]	2.55 ± 0.25	2.63 ± 0.16		
AALELLPRELFPPLFMAAFDGRHS [PRAME]	2.27 ± 0.38	2.4 ± 0.18		
ICDPGLTSFEPEALGNLVEGMDFH [CAMK2B]	3.92 ± 0.23	4.07 ± 0.13		
EDPEENPYGPPPDAVQTSLMDEGA [RBBP5]	5.56 ± 0.33	5.46 ± 0.29		
PLFSEDVVLKLFLSFSGSDVQNKL [SNX8]	2.1 ± 0.45	2.31 ± 0.39		
PAEDPDDYDDGFSMKHTATARFQR [SMARCE1]	4.81 ± 0.13	4.89 ± 0.17		
RLQCPFEQELLRRQQRLNQLEKPP [FAM107A]	3.93 ± 0.33	4.14 ± 0.18		
SFQPECSMKLTPLVLEVFGNEIS [VDR]			2.23 ± 0.33	2.41 ± 0.14
SAGGSRTPAMSSSSSSRVLLRQQL [TFE3]	3.45 ± 0.24	3.32 ± 0.19		
DLSPLLGFWQLPPPATQNTFGNST [PLAGL1]	2.36 ± 0.43	2.5 ± 0.23		
VYHSYDLPWFRTLSWYFLLCVNYF [CDS1]	2.85 ± 0.42	2.63 ± 0.51		
TITLNCPRNSDMKNQGEENGFPDS [EDARADD]	4.11 ± 0.51	4.23 ± 0.19		
MLQSFINYCLLFLIYTVMLAFRSG [SLC35F2]	2.83 ± 0.4	3.42 ± 0.28		
EKFSDEGDSDSALDSVSPCPSSPK [DLC1]	5.41 ± 0.51	5.58 ± 0.13		
PRDLPKHTPLISKSQSLRSVRRSE [RASAL3]	5.19 ± 0.27	5.43 ± 0.2		
AFHPLFSLTSGACRLDYRRPENRS [TCF25]	2.29 ± 0.41	2.24 ± 0.24		
QQVPMPPGQEAQRVVCGIDSSMIL [NEK8]	3.39 ± 0.29	3.5 ± 0.33		
LTAKQLIKSIVEASKGCQLGKTEQ [TRIM63]	2.57 ± 0.18	2.38 ± 0.6		

Sequence	protein stability index [1]	protein stability index [2]	protein stability index [3]	protein stability index [4]
RSSPDDLKALTRNVNRLNESFRDL [SCARA5]	3.95 ± 0.34	3.88 ± 0.32		
METSAPRAGSQVVATTARHSAAYR [FUNDC2]	4.5 ± 0.19	4.2 ± 0.11		
VSGINHDVTSGDHGDYFRLLLPGI [CPN1]	2.46 ± 0.28	2.23 ± 0.38		
PECGEIFAHSSNLLRHQRIHTGER [ZNF263]	3.88 ± 0.24	3.91 ± 0.073		
LPHLVALTEQYTVTGLMEATQMMV [RHOBTB2]	2.89 ± 0.67	2.86 ± 0.52		
ERSQEESPPGSTKRRKSMSGASPK [CDC25A]	5.48 ± 0.19	5.46 ± 0.12		
LGPSLEDLFDLCDRTFTLKTVLMI [CSNK1G1]	2.69 ± 0.82	2.56 ± 0.9		
VEFNHTGELLATGDKGGRVVIFQR [PPP2R2C]	2.54 ± 0.59	2.85 ± 0.44		
SRVLLSAIEGIPGSDYVNANYIDG [PTPRD]	3.28 ± 0.26	3.73 ± 0.24		
SKNEDRGEEEAESSISSTSNEQLK [ZMYND11]	5.33 ± 0.63	5.49 ± 0.21		
SWRWIMLILFAWGTLLFYIGGHLV [FUT8]	2.42 ± 0.14	2.27 ± 0.47		
GLRKRIATLFFHYIKTPLFNPEVA [IQUB]	2.12 ± 0.36	2.19 ± 0.74		
PEGARRGLGVLRALGSRGWEPFDW [FANCE]	3.05 ± 0.34	2.98 ± 0.42		
TAGKVLAHFYGVKLEGKVPMHKLF [ESRRA]	2.41 ± 0.39	2.44 ± 0.79		
VIKISYSTPQGKGEVVKIPSRVHG [PWWP2B]	2.5 ± 0.2	2.79 ± 0.3		
IAPVLKLASHHNHFSQIVIFMLCT [OR10K2]	3.25 ± 0.75	3.2 ± 0.83		
RQSVENDIHGLRKVIDDTNITRLQ [KRT18]	4.17 ± 0.22	4.13 ± 0.25		
RNGHAKVVRLLLEHYRVQTQQTGT [FEM1B]	2.32 ± 0.21	2.3 ± 0.28		
HYWELDVDNSCDWALGVCNNSWIR [TRIM43]	2.25 ± 0.21	2.2 ± 0.34		
EDSAQNCFALIPKAPKKDVIKMLV [EFHC1]	2.69 ± 0.4	2.97 ± 0.26		
IKSKKKLLQIIDTTLLKCYLHTNV [VPS39]	3.04 ± 0.37	2.86 ± 0.52		
APLLPHITATSLLGTRESDTEVIT [BCL2L13]	4.58 ± 0.26	4.47 ± 0.2		
ATKTEPKKLEKYLQKLSALLMTAD [ELOA2]	2.54 ± 0.59	2.31 ± 0.54		

Sequence	protein stability index [1]	protein stability index [2]	protein stability index [3]	protein stability index [4]
FSHDGLHVASLADDKMVRFWRIDE [WSB1]	2.44 ± 0.48	2.72 ± 0.52		
AGSFSRRLIKRFSFKSKPKANGNP [C2CD2L]	3.19 ± 0.21	3.55 ± 0.15		
CFNRSREYQLNDSAAYYLNDLDRI [GNAI1]	2.51 ± 0.25	2.46 ± 0.23		
KDIQPYMRRMVATWMLEVCEEQKC [CCND2]	2.33 ± 0.24	2.65 ± 0.3		
NGSCENSDASSHANAAKHTQDSAR [EHMT1]	5.27 ± 0.37	5.3 ± 0.2		
GWSKGFIGMHREMQVNPISKRMGP [RHOBTB1]	2.63 ± 0.32	2.61 ± 0.12		
QVGTLLFRSRSRLTHLSLSRRASE [CDC25B]	2.93 ± 0.39	3 ± 0.13		
FHNCLIQLYCEKVQGLMKEYLLSF [VPS39]	2.96 ± 0.26	3.2 ± 0.7		
WRNIILMSLLHLGALYGITLIPTC [SCD]	2.83 ± 0.19	2.9 ± 0.42		
TAENERLQKKVEQLSRELSTLRNL [CEBPB]	3.69 ± 0.2	3.95 ± 0.2		
KPYGCVECGKAFSRSSILVQHQRV [ZNF24]	2.07 ± 0.17	2.11 ± 0.2		
ELRFLLVYLHGDDHQDSDEFCRNT [FAF2]	2.29 ± 0.23	2.43 ± 0.32		
CLMIGRDLVRLLQNVARIPEFELL [INTS3]	2.49 ± 0.17	2.24 ± 0.25		
ATLCLEFLLQNDANPSIRDKEGYN [ANKRD44]	2.61 ± 0.26	2.73 ± 0.074		
VQFVFDAVTDVIIKNNLKDCGLF [GNAI1]			2.68 ± 0.81	2.61 ± 0.73
CDQYSCALTGPVVDIVTGHARLSD [DHCR7]	3.57 ± 0.25	3.71 ± 0.17		
IFIARRSLLDELLEVDHIRTIYHM [SOAT1]	2.8 ± 0.58	2.66 ± 0.75		
CPAELRPQVPQPPSPAAVPRPPSN [TRAF3IP2]	5.18 ± 0.13	5.01 ± 0.28		
STHELEKKELEENFEKLRLSLQDQ [MTUS2]	5.43 ± 0.14	5.33 ± 0.12		
TCLPLGVLMKGQHLHLETFKAVLD [PRAME]	2.36 ± 0.25	2.32 ± 0.32		
WDRNRRRGGGAAGAGGGGSGAGGG [KLHDC10]	5.16 ± 0.5	5.3 ± 0.2		
EQSSARQKASLLIQQALTMFPGVL [TCF25]	2.51 ± 0.3	2.54 ± 0.3		
SRMKFRGNGALSNISDLPFLAENS [LCOR]	3.32 ± 0.31	3.47 ± 0.27		

Sequence	protein stability index [1]	protein stability index [2]	protein stability index [3]	protein stability index [4]
SKNLIYRDVKPENFLIGRQGNKKE [CSNK1G1]	4.26 ± 0.22	4.28 ± 0.18		
IGCGNFGELRLGKNLYTNEYVAIK [CSNK1G3]	2.07 ± 0.18	2.12 ± 0.44		
LEAGADQEHKTDEMHTALMEACMD [ANKRD17]	5.52 ± 0.37	5.34 ± 0.28		
LLEEGGLVQVESVNLQVATYSKFQ [UFD1]	2.85 ± 0.32	2.9 ± 0.31		
FTLGTNAIIISTIVLDRALHIPMY [OR10K2]	2.89 ± 0.82	2.87 ± 0.78		
KDGVTMAPAFRLSLKAKVSDNMSH [FSD1]	3.56 ± 0.35	3.75 ± 0.26		
EKEMKAQEQRLGIRISMSHEEEPL [GMPPB]	5.23 ± 0.25	5.24 ± 0.086		
VEGAMHIQECVPEDLELKKKIFAQ [CRYL1]	4.74 ± 0.45	4.27 ± 0.2		
PLQDFPNSISSDKEATVPCTEILT [MIA2]	4.55 ± 0.24	4.54 ± 0.24		
QVLNETRSQYEALVETNRREVEQW [KRT34]	4.3 ± 0.22	4.6 ± 0.1		
TGKGPSTHTQIDQQPPRLLIVHIA [M1AP]	2.54 ± 0.34	2.44 ± 0.6		
LLDKLAKENQDIRLLQAQLQAQKE [PBXIP1]	4.37 ± 0.33	4.21 ± 0.27		
HLEYRFYKQLGSAGEGLPQVYYFG [CSNK1G1]	2.2 ± 0.47	2.15 ± 0.68		
HAACLKCAECSQYLDETCTCFVRD [ISL2]	4.67 ± 0.22	4.83 ± 0.23		
VHFSEAIEKFIREPSLKATMGLAG [ALG2]	2.33 ± 0.27	2.43 ± 0.24		
LQSTYATPVDMWSVGCIFAEMFRR [CDK4]	2.32 ± 0.42	2.37 ± 0.41		
EIATKPHEKIGFPAARRCHSCVQI [KLHDC10]	2.43 ± 0.29	2.59 ± 0.2		
HRVKLTNSTLDPHGHLILHSMHKY [TBX6]	2.37 ± 0.35	2.71 ± 0.2		
IWFRVPYSIISLLLKDKVRERIQI [PTPN9]	2.56 ± 0.65	2.77 ± 1.5		
NNQSDLEKEMQKMNPYKIDIGAVY [PRIM1]	3.03 ± 0.24	3.03 ± 0.16		

From the supplement of paper PMC10567573
